T1: EspG5 (M. tuberculosis), crystallization construct (M. tuberculosis H37Rv, UniProt O53943 1-300)
T1 sequence: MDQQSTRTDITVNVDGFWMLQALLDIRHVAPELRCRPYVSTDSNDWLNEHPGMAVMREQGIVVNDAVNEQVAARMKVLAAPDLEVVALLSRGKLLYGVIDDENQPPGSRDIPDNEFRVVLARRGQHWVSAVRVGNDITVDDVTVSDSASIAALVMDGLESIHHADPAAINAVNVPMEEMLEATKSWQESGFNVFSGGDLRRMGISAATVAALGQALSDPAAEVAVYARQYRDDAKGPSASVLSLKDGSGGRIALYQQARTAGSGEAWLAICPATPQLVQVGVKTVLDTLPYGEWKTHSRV

T2: EspG5 (M. tuberculosis), from His6-SUMO3-EspG5, tag cleaved (M. tuberculosis, UniProt O53943 1-300)
T2 sequence: T1 sequence

B1: PPE41 (M. tuberculosis), chain of the crystallized complex (natural protein)
chain: MHFEAYPPEVNSANIYAGPGPDSMLAAARAWRSLDVEMTAVQRSFNRTLLSLMDAWAGPVVMQLMEAAKPFVRWLTDLCVQLSEVERQIHEIVRAYEWAHHDMVPLAQIYNNRAERQILIDNNALGQFTAQIADLDQEYDDFWDEDGEVMRDYRLRVSDALSKLTPWKAPPPIAHSTVLVAPVSPSTASSRTDT
B2: His6-PE25–PPE41 heterodimer (M. tuberculosis), wild type (complex)
chain 1: MSFVITNPEALTVAATEVRRIRDRAIQSDAQVAPMTTAVRPPAADLVSEKAATFLVEYARKYRQTIAAAAVVLEEFAHALTTGADKYATAEADNIKTFS
chain 2: B1 chain

Experiments:
[1] = target: T1, EspG5 (M. tuberculosis), …; test: crystal structure
[2] = target: T2, EspG5 (M. tuberculosis), from …; test: ITC

Binder	binding result [1]	Kd [2] [nM]
B1	binds	
B2		48.1
